In patent US8852569B2, “Prevention and treatment of itch with cysteine protease inhibition” (The General Hospital Corporation, priority 2008, dated 2014):

B1: cathepsin K: recombinant human cysteine protease, expressed in E. coli as zymogen and cleaved to active enzyme (protein)
chain: APDSVDYRKKGYVTPVKNQGQCGSCWAFSSVGALEGQLKKKTGKLLNLSPQNLVDCVSENDGCGGGYMTNAFQYVQKNRGIDSEDAYPYVGQEESCMYNPTGKAAKCRGYREIPEGNEKALKRAVARVGPVSVAIDASLTSFQFYSKGVYYDESCNSDNLNHAVLAVGYGIQKGNKHWIIKNSWGENWGNKGYILMARNKNNACGIANLASFPKM
B2: cathepsin S: recombinant human cysteine protease, expressed in E. coli as zymogen and cleaved to active enzyme (protein)
chain: LPDSVDWREKGCVTEVKYQGSCGACWAFSAVGALEAQLKLKTGKLVSLSAQNLVDCSTEKYGNKGCNGGFMTTAFQYIIDNKGIDSDASYPYKAMDQKCQYDSKYRAATCSKYTELPYGREDVLKEAVANKGPVSVGVDARHPSFFLYRSGVYYEPSCTQNVNHGVLVVGYGDLNGKEYWLVKNSWGHNFGEEGYIRMARNKGNHCGIASFPSYPEI

Legend:
[1] = Chromogenic substrate assay, protease activity of the purified recombinant cathepsins; format: biochemical; settings: FIG. 1; protease 0.84 μM
Procedure: The concentrations of all the three proteases are at 0.84 μM and that of E64, a non-selective irreversible inhibitor of cysteine proteases, is at 2 μM […].
Papain served as a positive control cysteine protease. The cathepsin S and K were further evaluated for their capacity to activate PAR receptors as noted below.

human volunteers = test: Itch evoked by inactivated cowhage spicules reconstituted with cathepsin S, inserted into skin; format: in vivo
Procedure: Recombinant cathepsin S also evokes itch in human volunteers. In this experiment, native itch-evoking spicules from the plant Mucuna pruriens were inactivated by autoclaving for 1 hour and reconstituted with recombinant cathepsin S. Typically, 50 mg of inactivated spicules were mixed with 0.4 ml of 1 mg of recombinant cathepsin S in 0.1M NaCl with 0.01 M L-cysteine in a 2 ml microfuge tube, vortexed, dried in a Speed-vac for 2 hours at room temperature, vortexed again and transferred to a new tube. This second vortex step allowed for precipitated salt to be separated from the spicules. These spicules were then considered ‘reconstituted’ with the cathepsin S. Individual spicules were then superficially inserted approximately 0.2 mm into the skin of volunteers who rated the subsequent itch as “very strong”. The mean perceived intensity of itch and nociceptive sensation evoked by a single inactivated spicule reconstituted with cathepsin S on nine human volunteers is shown in FIG. 3A. The mean perceived intensity is similar with that for itch and nociceptive sensation evoked by a single spicule of native cowhage for the same nine volunteers.

PAR1 = test: PAR activation by cytoplasmic calcium release in transfected HeLa cells (Fura-2 ratiometric imaging), PAR1; format: cell-based, human; settings: HeLa cells transfected with PAR1
Procedure: (§1) The responses to PAR 2 and 4 were blocked by the protease inhibitor E64 (10 μM) as a control). Other controls included vector alone and vector encoding the PAR1 receptor. Cathepsin S was added as indicated. The averages from at least three separate experiments were then combined +/−SD.
(§2) PAR activation observed by cytoplasmic calcium release—The four human PAR cDNAs were obtained from commercial sources and cloned into the pcDNA3.1(−) vector (INVITROGEN™ Inc.). HeLa cells were transfected with 10 μg of vector cDNA using Lipofectamine 2000 (INVITROGEN™ Inc.) and cultured for two days in 96-well glass bottom plates at 30,000 cells/well. Cells were loaded with Fura-2 as follows. The medium was aspirated and replaced with 100 μl of complete DMEM containing 2 μM Fura-2 (INVITROGEN™ Inc.) and kept at room temperature in the dark for 1 hr. The medium was again aspirated and each well received 90 μl of HEPES buffered saline (20 mM HEPES, 115 mM NaCl, 5.4 mM KCl, 2 mM CaCl2, 0.8 mM MgCl2, 13.8 mM glucose, pH 7.4). Plates were observed using a Zeiss Axiovert 200M microscope equipped with a filter wheel for monitoring excitation at 340 and 380 nm. Axiovision software, version 4.6 was used to analyze ratiometric calcium imaging of the cells. Ten μl of a 21 μM solution of recombinant human cathepsin S were applied approximately 20 seconds after the start of excitation. […]

PAR2 = test: PAR activation by cytoplasmic calcium release in transfected HeLa cells (Fura-2 ratiometric imaging), PAR2; format: cell-based, human
Procedure: as §1
(§3) Salmon sperm (SS) DNA is used as control. The averages from at least three separate experiments were then combined +/−SD.
as §2, with “cells.” for “cells. Ten μl of a 21 μM solution of recombinant human cathepsin S were applied approximately 20 seconds after the start of excitation.”

PAR4 = test: PAR activation by cytoplasmic calcium release in transfected HeLa cells (Fura-2 ratiometric imaging), PAR4; format: cell-based, human
Procedure: as §1, §3
as §2, with “cells.” for “cells. Ten μl of a 21 μM solution of recombinant human cathepsin S were applied approximately 20 seconds after the start of excitation.”

[2] = cathepsin S 30 nM versus mucunain

Molecule | capacity to cleave the chromogenic substrate Z-Phe-Arg-pNA [1] | mean perceived intensity of itch and nociceptive sensation compared with a single spicule of native cowhage (human volunteers; nine human volunteers, FIG. 3A versus 3B) | itch rating by volunteers (human volunteers; single reconstituted spicule inserted approximately 0.2 mm into skin) | activation of PAR1 (calcium flux) (PAR1) | concentration at which strong activation of PAR2 occurred (calcium flux) (PAR2; HeLa cells transfected with PAR2) | activating concentration relative to that needed for stimulation via mucunain, PAR2 (PAR2; [2]) | concentration at which strong activation of PAR4 occurred (calcium flux) (PAR4; HeLa cells transfected with PAR4) | activating concentration relative to that needed for stimulation via mucunain, PAR4 (PAR4; [2])
B1 | had protease activity |  |  |  |  |  |  | 
B2 | had protease activity | similar | very strong | no activation | 30 nM | at least ten-fold less | 30 nM | at least ten-fold less
